The record followed here is paper PMC4017264 (Molecular Cell, 2014).

The target of assay [1] is T1, HOIP PUB domain (HOIP 1-184) (Homo sapiens, UniProt Q96EP0).
T1 construct: PUB domains from HOIP (aa 1–184, red); His6 (3C-cleavable, pOPINB) (N, cleaved yes); made in house; host or cells: E. coli Rosetta2 (DE3) pLacI
T1 sequence (Q96EP0 1-184): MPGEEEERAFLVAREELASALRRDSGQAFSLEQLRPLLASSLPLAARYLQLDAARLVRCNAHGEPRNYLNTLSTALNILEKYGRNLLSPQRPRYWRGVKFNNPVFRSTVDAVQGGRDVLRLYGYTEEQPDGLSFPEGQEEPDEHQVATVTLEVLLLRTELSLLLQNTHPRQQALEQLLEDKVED
The experiment in a line: fluorescence polarization binding of FITC-Ahx peptides to HOIP PUB domain. The note with it: for reduction of HOIP binding versus wild-type OTULIN peptide: OTULIN peptide point mutants. Here is the method:
Serially diluted PUB domains and HOIP variants were mixed with an equal volume of 100 nM FITC-Ahx-labeled peptides of OTULIN and p97. Fluorescence polarization was recorded on a PheraStar plate reader (BMG LABTECH) and fitted to a one-site binding model with GraphPad Prism 5.
Fluorescence polarization binding assays
10 µl of 100 nM FITC-Ahx peptides of either OTULIN (49-67) or p97 (797-806) were aliquoted into a 384-well low volume plate (Corning). Serial dilutions of HOIP PUB into FP assay buffer (20 mM Tris pH 7.4, 100 mM NaCl, 1 mM DTT) were prepared and 10 µl of this was aliquoted to FITC-Ahx peptide-containing wells. Fluorescence polarization was recorded on a PheraStar plate reader (BMG Labtech) using an optics module with $ex = 485 nm and $em = 520 nm. To derive binding constants (KD), polarization values were fitted to a one-site binding model using Graphpad Prism 5. […]

The test system of assay [2] is endogenous LUBAC (HOIP, HOIL-1, SHARPIN). The experiment in a line: coimmunoprecipitation of endogenous LUBAC components with HA-tagged OTULIN. Format: cell-based. The note with it: HA-OTULIN variants in HEK293T cells, anti-HA IP, western blot. On the procedure: (§1) Transfected HEK293T or U2OS and NOD2 cells were lysed in the presence of protease and phosphatase inhibitors. Clarified lysates were incubated overnight with anti-V5 and anti-HA-agarose resin. […]
(§2) siOTULIN: […], siMM […]
(§3) Immunoprecipitation of HOIP-V5 and HA-OTULIN
(§4) HEK293T or U2OS/NOD2 cells were transfected as indicated. The cells were lysed in IP buffer buffer (25 mM HEPES pH 7.4, 150 mM KCl, 2 mM MgCl2, 1 mM EGTA, 0.5% (v/v) Triton X-100) supplemented with 5 mM NEM (Sigma-Aldrich), cOmplete protease inhibitor cocktail (Roche) and PhosSTOP
(§5) (Roche). After 30 minutes on ice, the lysates were cleared by centrifugation and incubated overnight at 4 °C with anti-V5-agarose resin or anti-HA-agarose resin. The beads were washed four times in ice-cold IP buffer and the precipitated material was eluted with 0.2 M glycine, pH 2.5. […]

Assay [3] addresses T2, HOIP extended PUB domain (aa 1–184) (UniProt Q96EP0 1-184).
T2 chain: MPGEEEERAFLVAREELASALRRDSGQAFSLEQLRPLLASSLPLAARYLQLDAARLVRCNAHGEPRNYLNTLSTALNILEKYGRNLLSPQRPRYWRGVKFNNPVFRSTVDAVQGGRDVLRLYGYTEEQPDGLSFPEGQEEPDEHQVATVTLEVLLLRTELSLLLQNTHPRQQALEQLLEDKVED
As to the kind of experiment: FP.

The test system of a further assay is endogenous OTULIN. The experiment in a line: coimmunoprecipitation of endogenous OTULIN with tagged HOIP/HOIL-1. The note with it: tagged HOIP/HOIL-1 constructs, HEK293T or U2OS/NOD2 cells, western blot. Format: cell-based. Here is the method:
as §1, §2, §3, §4, §5
(Immunoblotting shows a protein as a band on a membrane.)

Non-standard residues stand in square brackets, D forms with d. No end group written: not given here. *: point of attachment. FITC = O=C1OC2(c3ccc(O)cc3Oc3cc(O)ccc32)c2ccc(NC(=S)*)cc21; pY = N[C@@H](Cc1ccc(OP(=O)(O)O)cc1)C(=O)O; Ahx = NCCCCCC(=O)O

The Kd is the equilibrium constant for the complex coming apart.

Turning to “M55D: fluorescently labeled OTULIN peptide (aa 49–67) with point mutation M55D ({FITC-Ahx}-AEHEEDDYRAADEIEKEKE)”, in assay [1], the “binding to HOIP PUB domain (in words)” value is given as “abrogated binding”. For the molecule “OTULIN Y56F: HA-tagged full-length OTULIN with PIM point mutation Y56F”, in assay [2], the “coimmunoprecipitation of endogenous LUBAC components (in words)” value is “abrogated binding”.

Regarding “OTULIN Y56A: HA-tagged full-length OTULIN with PIM point mutation Y56A”, the “coimmunoprecipitation of endogenous LUBAC components (in words)” value in assay [2] is reported as “abrogated binding”. Turning to “Y56A: fluorescently labeled OTULIN peptide (aa 49–67) with point mutation Y56A ({FITC-Ahx}-AEHEEDMARAADEIEKEKE; UniProt Q96BN8 49-67, looked up, variant Y56A)”, in assay [1], the “binding to HOIP PUB domain (in words)” value is on record as “abrogated binding”. As for “OTULIN D54A: HA-tagged full-length OTULIN with PIM point mutation D54A”, in assay [2], the “coimmunoprecipitation of endogenous LUBAC components (in words)” value was “Residual binding was still observed”. Regarding “D54A: fluorescently labeled OTULIN peptide (aa 49–67) with point mutation D54A ({FITC-Ahx}-AEHEEAMYRAADEIEKEKE)”, the “reduction of HOIP binding versus wild-type OTULIN peptide” value in assay [1] stood at 60 fold. Regarding “OTULIN Y56E: HA-tagged full-length OTULIN with PIM point mutation Y56E”, the “coimmunoprecipitation of endogenous LUBAC components (in words)” value in assay [2] was “abrogated binding”. On to “FITC-Ahx-OTULIN 49-63 pY56: Tyr56-phosphorylated FITC-Ahx-labeled OTULIN peptide (legend: 49–67) ({FITC-Ahx}-AEHEEDM[pY]RAADEIEKEKE)”, for which the “binding to HOIP PUB domain (in words)” value in assay [1] was “unable to bind HOIP”. Consider “Y56W: fluorescently labeled OTULIN peptide (aa 49–67) with point mutation Y56W ({FITC-Ahx}-AEHEEDMWRAADEIEKEKE)”, for which the “reduction of HOIP binding versus wild-type OTULIN peptide” value in assay [1] was 100 fold.

B1: fluorescently labeled OTULIN peptide (aa 49–67) Y56F (peptide)
peptide: AEHEEDMFRAADEIEKEKE
modifications: not fully specified (N-terminus)
Regarding B1, the Kd in assay [3] turned out to be 64.5 µM.

B2: Y82F: V5-tagged HOIP with point mutation Y82F in the PUB binding site (protein, UniProt Q96EP0 1-1072, looked up, variant Y82F)
E3 ubiquitin-protein ligase …: MPGEEEERAFLVAREELASALRRDSGQAFSLEQLRPLLASSLPLAARYLQLDAARLVRCNAHGEPRNYLNTLSTALNILEKFGRNLLSPQRPRYWRGVKFNNPVFRSTVDAVQGGRDVLRLYGYTEEQPDGLSFPEGQEEPDEHQVATVTLEVLLLRTELSLLLQNTHPRQQALEQLLEDKVEDDMLQLSEFDPLLREIAPGPLTTPSVPGSTPGPCFLCGSAPGTLHCPSCKQALCPACDHLFHGHPSRAHHLRQTLPGVLQGTHLSPSLPASAQPRPQSTSLLALGDSSLSSPNPASAHLPWHCAACAMLNEPWAVLCVACDRPRGCKGLGLGTEGPQGTGGLEPDLARGRWACQSCTFENEAAAVLCSICERPRLAQPPSLVVDSRDAGICLQPLQQGDALLASAQSQVWYCIHCTFCNSSPGWVCVMCNRTSSPIPAQHAPRPYASSLEKGPPKPGPPRRLSAPLPSSCGDPEKQRQDKMREEGLQLVSMIREGEAAGACPEEIFSALQYSGTEVPLQWLRSELPYVLEMVAELAGQQDPGLGAFSCQEARRAWLDRHGNLDEAVEECVRTRRRKVQELQSLGFGPEEGSLQALFQHGGDVSRALTELQRQRLEPFRQRLWDSGPEPTPSWDGPDKQSLVRRLLAVYALPSWGRAELALSLLQETPRNYELGDVVEAVRHSQDRAFLRRLLAQECAVCGWALPHNRMQALTSCECTICPDCFRQHFTIALKEKHITDMVCPACGRPDLTDDTQLLSYFSTLDIQLRESLEPDAYALFHKKLTEGVLMRDPKFLWCAQCSFGFIYEREQLEATCPQCHQTFCVRCKRQWEEQHRGRSCEDFQNWKRMNDPEYQAQGLAMYLQENGIDCPKCKFSYALARGGCMHFHCTQCRHQFCSGCYNAFYAKNKCPEPNCRVKKSLHGHHPRDCLFYLRDWTALRLQKLLQDNNVMFNTEPPAGARAVPGGGCRVIEQKEVPNGLRDEACGKETPAGYAGLCQAHYKEYLVSLINAHSLDPATLYEVEELETATERYLHVRPQPLAGEDPPAYQARLLQKLTEEVPLGQSIPRRRK
modifications: V5 tag
On to B2, for which the “coimmunoprecipitation of endogenous OTULIN (in words)” value with endogenous OTULIN was “decreased binding”.

B3: K99E: V5-tagged HOIP with point mutation K99E in the PUB binding site (protein)
chain: MPGEEEERAFLVAREELASALRRDSGQAFSLEQLRPLLASSLPLAARYLQLDAARLVRCNAHGEPRNYLNTLSTALNILEKYGRNLLSPQRPRYWRGVEFNNPVFRSTVDAVQGGRDVLRLYGYTEEQPDGLSFPEGQEEPDEHQVATVTLEVLLLRTELSLLLQNTHPRQQALEQLLEDKVEDDMLQLSEFDPLLREIAPGPLTTPSVPGSTPGPCFLCGSAPGTLHCPSCKQALCPACDHLFHGHPSRAHHLRQTLPGVLQGTHLSPSLPASAQPRPQSTSLLALGDSSLSSPNPASAHLPWHCAACAMLNEPWAVLCVACDRPRGCKGLGLGTEGPQGTGGLEPDLARGRWACQSCTFENEAAAVLCSICERPRLAQPPSLVVDSRDAGICLQPLQQGDALLASAQSQVWYCIHCTFCNSSPGWVCVMCNRTSSPIPAQHAPRPYASSLEKGPPKPGPPRRLSAPLPSSCGDPEKQRQDKMREEGLQLVSMIREGEAAGACPEEIFSALQYSGTEVPLQWLRSELPYVLEMVAELAGQQDPGLGAFSCQEARRAWLDRHGNLDEAVEECVRTRRRKVQELQSLGFGPEEGSLQALFQHGGDVSRALTELQRQRLEPFRQRLWDSGPEPTPSWDGPDKQSLVRRLLAVYALPSWGRAELALSLLQETPRNYELGDVVEAVRHSQDRAFLRRLLAQECAVCGWALPHNRMQALTSCECTICPDCFRQHFTIALKEKHITDMVCPACGRPDLTDDTQLLSYFSTLDIQLRESLEPDAYALFHKKLTEGVLMRDPKFLWCAQCSFGFIYEREQLEATCPQCHQTFCVRCKRQWEEQHRGRSCEDFQNWKRMNDPEYQAQGLAMYLQENGIDCPKCKFSYALARGGCMHFHCTQCRHQFCSGCYNAFYAKNKCPEPNCRVKKSLHGHHPRDCLFYLRDWTALRLQKLLQDNNVMFNTEPPAGARAVPGGGCRVIEQKEVPNGLRDEACGKETPAGYAGLCQAHYKEYLVSLINAHSLDPATLYEVEELETATERYLHVRPQPLAGEDPPAYQARLLQKLTEEVPLGQSIPRRRK
modifications: left off: V5, end not stated, kept
As to B3, in the assay on endogenous OTULIN, the “coimmunoprecipitation of endogenous OTULIN (in words)” value is listed as “decreased binding”.

B4: fluorescently labeled OTULIN peptide (aa 49–67) D54A (peptide)
peptide: {FITC-Ahx}-AEHEEAMYRAADEIEKEKE
Take B4: binding in assay [3] was put at a Kd of 11.2 µM.

B5: fluorescently labeled OTULIN peptide (aa 49–67) Y56W (peptide)
peptide: {FITC-Ahx}-AEHEEDMWRAADEIEKEKE
B5 gave a Kd in assay [3] of 21.3 µM.
